# From PMC5780489
# Assays:
# [1] = biological target: PABPC1ΔLt2 (residues 1-420, 471-636) (human) (UniProt P11940)
# [2] = biological target: poly(A)-binding protein C1 (PABPC1), full length human (human) (UniProt P11940)
# Sequence of poly(A)-binding protein C1 (PABPC1), full length human (P11940 whole entry): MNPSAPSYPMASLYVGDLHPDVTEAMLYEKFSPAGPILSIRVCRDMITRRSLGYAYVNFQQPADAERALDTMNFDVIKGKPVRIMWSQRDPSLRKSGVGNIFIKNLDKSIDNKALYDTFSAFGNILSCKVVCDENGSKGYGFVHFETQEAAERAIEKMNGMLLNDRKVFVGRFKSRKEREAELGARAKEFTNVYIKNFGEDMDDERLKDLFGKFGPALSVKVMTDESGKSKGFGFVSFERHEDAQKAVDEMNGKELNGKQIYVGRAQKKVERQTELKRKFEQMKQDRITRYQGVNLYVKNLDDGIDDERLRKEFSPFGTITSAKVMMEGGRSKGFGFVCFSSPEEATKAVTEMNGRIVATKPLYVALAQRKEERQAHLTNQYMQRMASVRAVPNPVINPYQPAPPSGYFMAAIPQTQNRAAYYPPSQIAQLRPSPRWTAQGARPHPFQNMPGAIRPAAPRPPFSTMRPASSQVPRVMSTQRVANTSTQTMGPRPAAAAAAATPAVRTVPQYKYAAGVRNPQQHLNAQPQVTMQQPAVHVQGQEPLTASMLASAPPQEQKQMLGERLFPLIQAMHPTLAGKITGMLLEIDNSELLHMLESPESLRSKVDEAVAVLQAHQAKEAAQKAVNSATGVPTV
substance,measurement,setting,value
"PABPC1ΔLt2 (residues 1-420, 471-636) (from UniProt P11940 1-636) (natural protein)",translation of capped luciferase mRNA with poly(A) in PABPC1-depleted rabbit reticulocyte lysate after adding 10 nM purified protein; fold enhancement over depleted lysate,[1],1.7 fold
"poly(A)-binding protein C1 (PABPC1), full length human (from UniProt P11940 1-636) (natural protein)",translation of capped luciferase mRNA with poly(A) in PABPC1-depleted rabbit reticulocyte lysate after adding 10 nM purified protein; fold enhancement over depleted lysate,[2],2.5 fold
